The source of these data is US20160106861A1, “AXL ANTIBODY-DRUG CONJUGATE AND ITS USE FOR THE TREATMENT OF CANCER” (PIERRE FABRE MEDICAMENT, priority 2013, published 2016).

In this test the test system is SN12C cells. Nature of the test: Internalization study by fluorescent immunocytochemistry (confocal microscopy). The test is classed as cell-based, human. To be noted: 10 μg/ml, 1 h and 2 h at 37° C. As for the experimental part: Briefly, SN12C tumor cell line was cultured in RMPI1640 with 1% L-glutamine and 10% of FCS for 3 days before experiment. Cells were then detached using trypsin and plated in 6-multiwell plate containing coverslide in RPMI1640 with 1% L-glutamine and 5% FCS. The next day, 1613F12 was added at 10 μg/ml. Cells treated with an irrelevant antibody were also included. The cells were then incubated for 1 h and 2 h at 37° C., 5% CO2. For T 0 h, cells were incubated for 30 minutes at 4° C. to determine antibody binding on cell surface. Cells were washed with PBS and fixed with paraformaldehyde for 15 minutes. Cells were rinsed and incubated with a goat anti-mouse IgG Alexa 488 antibody for 60 minutes at 4° C. to identify remaining antibody on the cell surface. To follow antibody penetration into the cells, cells were fixed and permeabilized with saponin. A goat anti-mouse IgG Alexa 488 (Invitrogen) was used to stained both the membrane and the intracellular antibody. […] Cells were washed three times and nuclei were stained using Draq5. After staining, cells were mounted in Prolong Gold mounting medium (Invitrogen) and analyzed by using a Zeiss LSM 510 confocal microscope.

B1: m1613F12 (murine 1613F12, hybridoma CNCM I-4505) (antibody, V domains shown)
VH: EVHLQQSGAELVKPGASVKLSCTASGFNIRDTYIHWVKQRPEQGLEWIGRLDPANGHTKYGPNFQGRATMTSDTSSNTAYLQLSSLTSEDTAVYYCARGAYYYGSSGLFYFDYWGQGTTLSVSS
VL: DVQITQSPSYLATSPGETITINCRASKSISKYLAWYQEKPGKTNKLLIYSGSTLQSGVPSRFSGSGSGTDFTLTISSLEPEDFAMYFCQQHHEYPLTFGAGTELELK
notes: Murine monoclonal antibody; also called Axl antibody
In the case of B1, the “internalization (membrane and intracellular staining)” value is reported as “internalization of 1613F12 into SN12C cells”.
